Data from publication doi:10.1101/2022.09.22.509047, “Deciphering bacteriophage T5 host recognition mechanism and infection trigger” (bioRxiv, 2022).

Target: T1, E. coli iron ferrichrome transporter FhuA (E. coli, UniProt P06971 34-747)
T1 construct: FhuA, outer-membrane iron-ferrichrome transporter of E. coli; His-tag inserted in extracellular loop L5 after residue 405 (9 residues, not counted in the numbering); residues 1-17 disordered in the map; Lipopolysaccharide copurifies with FhuA; Purification is as in Flayhan et al, 2012; source: E. coli AW740, plasmid-encoded, grown with 100 µM dipyridine, purified; not shown: His6, internal (after …)
T1 sequence (looked up): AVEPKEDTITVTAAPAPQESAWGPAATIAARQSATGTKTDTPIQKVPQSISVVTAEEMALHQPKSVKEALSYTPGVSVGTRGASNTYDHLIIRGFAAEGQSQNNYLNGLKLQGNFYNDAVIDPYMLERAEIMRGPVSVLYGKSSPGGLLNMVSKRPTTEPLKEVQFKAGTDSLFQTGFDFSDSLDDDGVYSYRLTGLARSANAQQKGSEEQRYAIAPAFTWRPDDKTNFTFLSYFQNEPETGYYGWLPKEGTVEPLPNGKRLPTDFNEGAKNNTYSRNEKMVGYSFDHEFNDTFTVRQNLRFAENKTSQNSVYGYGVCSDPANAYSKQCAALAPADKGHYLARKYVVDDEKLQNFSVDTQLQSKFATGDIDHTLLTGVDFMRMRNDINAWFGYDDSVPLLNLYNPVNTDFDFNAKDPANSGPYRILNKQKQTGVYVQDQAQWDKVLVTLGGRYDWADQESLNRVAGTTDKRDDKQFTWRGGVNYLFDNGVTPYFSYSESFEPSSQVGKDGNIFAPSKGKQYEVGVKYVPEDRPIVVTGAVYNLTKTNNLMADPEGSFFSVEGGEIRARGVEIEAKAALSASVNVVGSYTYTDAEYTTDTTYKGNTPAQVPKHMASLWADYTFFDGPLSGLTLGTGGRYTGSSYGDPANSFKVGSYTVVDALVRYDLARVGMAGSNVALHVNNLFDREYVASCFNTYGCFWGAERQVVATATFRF
Assay: cryo-EM structure; FhuA-RBPpb5 complex formed from equimolar amounts of the two purified proteins; 20 mM Tris, 1.6% C10DAO, 4.3 mg/mL; 2.6 Å average resolution
Conditions: both partners purified

B1: bacteriophage T5 Receptor Binding Protein pb5 (natural protein)
chain: MSFFAGKLNNKSILSLRRGSGGDTNQHINPDSQTIFHSDMSHVIITETHSTGLRLDQGAGDYYWSEMPSRVTQLHNNDPNRVVLTEIEFSDGSRHMLSGMSMGVGAKAYGIINPQIMSQGGLKTQITASADLSLDVGYFNTGTSGTIPQKLRDGTGCQHMFGAFSGRRGFASSAMYLGGAALYKSAWSGSGYVVADAGTLTIPSDYVRHPGARNFGFNAIYVRGRSCNRVLYGMEGPNYTTGGAVQGASSSGALNFTYNPSNPESPKYSVGFARADPTNYAYWESMGDPNDSANGPIGIYSEHLGIYPSKITWYVTNLVYNGSGYNIDGGLFNGNDIKLSPREFIIKGVNVNNTSWKFINFIEKNFNVGNRADFRDVGCNLSKDSPSTGISGIATFGLPTTESNNAPSIKGGNVGGLHANVVSIYNFLPSASWYVSSNPPKIGNNYGDVWSENLLPLRLLGGSGSTILSGNIVFQGNGSVHVGTVGLDLNSSRNGAIVCTMEFIDDTWLSAGGIGCFNPTEMLSQGAEYGDSRFRIGGNTINKKLHQILSLPAGEYVPFFTIKGTVVNACKLQAAAYNPTPYWVSGLPGSVGQTGYYTLTYYMRNDGNNNISIWLDSSMSNIIGMKACLPNIKLIIQRLT
notes: 640 residues; residues 1-37, 333-352, 365-371 and 427-455 not traced in the map; In the functional rows pb5 stands on the phage T5 tail tip (T5st0), untagged; also called RBPpb5; source: E. coli BL21(DE3), pET-28 vector, 20 °C without induction, purified; not shown: His tag, C-terminal, kept
binding result: binds
